{
  "source": "paper PMC9012491",
  "about": "“Engineering the Single Domain Antibodies Targeting Receptor Binding Motifs Within the Domain III of West Nile Virus Envelope Glycoprotein” (Frontiers in Microbiology, 2022)",
  "binders": {"B1": {"name": "sdAbA6 (VHH)", "VHH": "EVQVVASGGGLVQPGGSLSLSCAASGFTFSGYDMTWVRQAPGKGLEWVSSINSGGGNTNYADSVKGRFTISRDNAKNTLYLQMNSLKPEDTALYYCARRNDYGSLLAALDAWGQGTLVTVS"}, "B2": {"name": "sdAbA1 (VHH)", "VHH": "QVQLLASGPGLVKPSQTLSLTCTVSGGAITSGYYGWSWIRQPPGKELEWMGVIASSGSTYYSPSLKSRTSISRDTSKSQFTLQLSSVTPEDTAVYYCARDAIQGPNFLYDYWGQGTLVTVS"}, "B3": {"name": "sdAbA10 (VHH)", "VHH": "QVQVLASGGGLVQPGGSLRLSCAASGFTFSSNAMSWVRQAPGKGLEWVSTINSGGSRTTYTDSVKGRFTISRDNAKNTLYLQMNSLKPDDTAVYYCAKARVDLNLHGWGTSYEYDYWGQGTLVTVS", "notes": "also called sdAbA9"}},
  "key": {"[1]": {"biological_target": "T1, synthetic analog of the receptor binding motif DIII-1^G299–K307 (West Nile virus; residues agree with …, biotinylated C-terminal lysine)", "T1 construct": "numbers count on: the E glycoprotein; rDIII is of strain goshawk (GenBank DQ116961.1); also called DIII-1^L299–K307 (so printed in the discussion); source: synthetic peptide (Caslo)", "T1 chain": "GTTYGVCSK", "assay": "far-Western, overlay or dot blot; dot blot: purified sdAbs (1 μl) spotted on nitrocellulose, blocked with 5% BSA; biotinylated peptide 1 μg/ml in phosphate buffer pH 7.0, 1 h; streptavidin-HRP", "details": "both partners purified"}, "[2]": {"biological_target": "T2, synthetic analog of the receptor binding motif DIII-2^V371–R388 (West Nile virus; residues agree with …, biotinylated C-terminal lysine)", "T2 construct": "numbers count on: the E glycoprotein; rDIII is of strain goshawk (GenBank DQ116961.1); source: synthetic peptide (Caslo)", "T2 chain": "VLIELEPPFGDSYIVVGR", "assay": "far-Western, overlay or dot blot; dot blot: purified sdAbs (1 μl) spotted on nitrocellulose, blocked with 5% BSA; biotinylated peptide 1 μg/ml in phosphate buffer pH 7.0, 1 h; streptavidin-HRP", "details": "both partners purified"}},
  "data": [
    {"binder": "B1", "values": [
      {"measurement": "binding result", "setting": "[1]", "result": "binds"}
    ]},
    {"binder": "B2", "values": [
      {"measurement": "binding result", "setting": "[1]", "result": "binds"}
    ]},
    {"binder": "B3", "values": [
      {"measurement": "binding result", "setting": "[2]", "result": "binds"}
    ]}
  ]
}
